Experimental data: article PMC5025758 (Nature Communications, 2016)

Biological target: the molecule itself
Experiment: crystal structure

B1: β-ketoacyl synthase KasA (Mycobacterium tuberculosis) (enzyme)
chain: SQPSTANGGFPSVVVTAVTATTSISPDIESTWKGLLAGESGIHALEDEFVTKWDLAVKIGGHLKDPVDSHMGRLDMRRMSYVQRMGKLLGGQLWESAGSPEVDPDRFAVVVGTGLGGAERIVESYDLMNAGGPRKVSPLAVQMIMPNGAAAVIGLQLGARAGVMTPVSACSSGSEAIAHAWRQIVMGDADVAVCGGVEGPIEALPIAAFSMMRAMSTRNDEPERASRPFDKDRDGFVFGEAGALMLIETEEHAKARGAKPLARLLGAGITSDAFHMVAPAADGVRAGRAMTRSLELAGLSPADIDHVNAHGTATPIGDAAEANAIRVAGCDQAAVYAPKSALGHSIGAVGALESVLTVLTLRDGVIPPTLNYETPDPEIDLDVVAGEPRYGDYRYAVNNSFGFGGHNVALAFGRY
notes: also called Rv2245
B1 was tested, and the “stoichiometry N” value was 2.
